Target: the molecule itself
Experiment: SEC; renatured SpoVK-His6 on Superdex 200 Increase in renaturation buffer (500 mM L-arginine, 100 mM NaCl, pH 7.5), 0.75 ml/min; final peak

B1: SpoVK-His6 (enzyme, B. subtilis, UniProt P27643 1-322, looked up)
chain: MLERAVTYKNNGQINIILNGQKQVLTNAEAEAEYQAALQKNEAKHGILKEIEKEMSALVGMEEMKRNIKEIYAWIFVNQKRAEQGLKVGKQALHMMFKGNPGTGKTTVARLIGKLFFEMNVLSKGHLIEAERADLVGEYIGHTAQKTRDLIKKSLGGILFIDEAYSLARGGEKDFGKEAIDTLVKHMEDKQHEFILILAGYSREMDHFLSLNPGLQSRFPISIDFPDYSVTQLMEIAKRMIDEREYQLSQEAEWKLKDYLMTVKSTTSPIKFSNGRFVRNVIEKSIRAQAMRLLMGDQYLKSDLMTIKSQDLSIKEEASGSA
notes: SpoVK, AAA+ ATPase of Bacillus subtilis; also called purified SpoVK
stoichiometry N: ~3

Source: publication doi:10.1101/2023.10.06.561273, “Bacterial cell surface nanoenvironment requires a specialized chaperone to activate a peptidoglycan biosynthetic enzyme” (bioRxiv, 2023)
